Assay results published in FireProtDB (doi:10.1016/0022-2836(92)90387-y).

Details: Bacillus amyloliquefaciens; pH 6.3; 25 °C; Urea; Fluorescence; MES 50 mM; reversible: yes; whole UniProt chain shown

B1: Ribonuclease wild type, P00648 (protein)
chain: MMKMEGIALKKRLSWISVCLLVLVSAAGMLFSTAAKTETSSHKAHTEAQVINTFDGVADYLQTYHKLPDNYITKSEAQALGWVASKGNLADVAPGKSIGGDIFSNREGKLPGKSGRTWREADINYTSGFRNSDRILYSSDWLIYKTTDHYQTFTKIR
With B1 the unfolding free energy was 8.83 kcal/mol.
